From patent US20220308072A1

Tests used:
[1] = target: Recombinant, his tagged full length human frataxin protein (Abcam ab95502) (human) (UniProt Q16595); assay: Simoa sandwich 2-step; capture Ab-4; frataxin 1000 pg/mL
[2] = target: Recombinant, his tagged full length human frataxin protein (Abcam ab95502) (human) (UniProt Q16595); assay: Simoa sandwich 2-step (120 min-5 min); capture Ab-1; frataxin 222 pg/mL
[3] = target: Recombinant, his tagged full length human frataxin protein (Abcam ab95502) (human) (UniProt Q16595); assay: Simoa sandwich 3-step; capture Ab-5; frataxin 100 pg/mL
[4] = target: Recombinant, his tagged full length human frataxin protein (Abcam ab95502) (human) (UniProt Q16595); assay: Simoa sandwich 3-step; capture Ab-2; frataxin 100 pg/mL
[5] = target: Recombinant, his tagged full length human frataxin protein (Abcam ab95502) (human) (UniProt Q16595); assay: Simoa sandwich 2-step; capture Ab-1; frataxin 55.6 pg/mL
[6] = target: Recombinant, his tagged full length human frataxin protein (Abcam ab95502) (human) (UniProt Q16595); assay: Simoa sandwich 2-step (35 min-5 min); capture Ab-1; with helper beads; frataxin 0.686 pg/mL
[7] = target: Recombinant, his tagged full length human frataxin protein (Abcam ab95502) (human) (UniProt Q16595); assay: Simoa sandwich 2-step (120 min-5 min); capture Ab-1; Diluent 1 + 5% NCS
[8] = target: Recombinant, his tagged full length human frataxin protein (Abcam ab95502) (human) (UniProt Q16595); assay: Simoa sandwich 2-step (120 min-5 min); capture Ab-1; Diluent 1 + 10% NCS; frataxin 200 pg/mL
[9] = target: Recombinant, his tagged full length human frataxin protein (Abcam ab95502) (human) (UniProt Q16595); assay: Simoa sandwich 2-step (120 min-5 min); capture Ab-1; Diluent 1 + 10% NCS
[10] = target: Recombinant, his tagged full length human frataxin protein (Abcam ab95502) (human) (UniProt Q16595); assay: Simoa sandwich 2-step; capture Ab-4; frataxin 100 pg/mL
[11] = target: Recombinant, his tagged full length human frataxin protein (Abcam ab95502) (human) (UniProt Q16595); assay: Simoa sandwich 2-step (120 min-5 min); capture Ab-1; Diluent 1 + 5% NCS; remark: listed apart in the source
[12] = target: Recombinant, his tagged full length human frataxin protein (Abcam ab95502) (human) (UniProt Q16595); assay: Simoa sandwich 3-step; capture Ab-4; frataxin 100 pg/mL
[13] = target: Recombinant, his tagged full length human frataxin protein (Abcam ab95502) (human) (UniProt Q16595); assay: Simoa sandwich 2-step (120 min-5 min); capture Ab-1; frataxin 24.7 pg/mL
[14] = target: Recombinant, his tagged full length human frataxin protein (Abcam ab95502) (human) (UniProt Q16595); assay: Simoa sandwich 2-step (120 min-5 min); capture Ab-1; Diluent 1 + 5% NCS; frataxin 333 pg/mL
[15] = target: Recombinant, his tagged full length human frataxin protein (Abcam ab95502) (human) (UniProt Q16595); assay: Simoa sandwich 3-step; capture Ab-4; frataxin 1000 pg/mL
[16] = target: Recombinant, his tagged full length human frataxin protein (Abcam ab95502) (human) (UniProt Q16595); assay: Simoa sandwich 2-step (35 min-5 min); capture Ab-1; with helper beads; frataxin 2.06 pg/mL
[17] = target: Recombinant, his tagged full length human frataxin protein (Abcam ab95502) (human) (UniProt Q16595); assay: Simoa sandwich 2-step; capture Ab-1; 150 pM SβG; frataxin 55.6 pg/mL
[18] = target: Recombinant, his tagged full length human frataxin protein (Abcam ab95502) (human) (UniProt Q16595); assay: Simoa sandwich 2-step; capture Ab-1; 50 pM SβG
[19] = target: Recombinant, his tagged full length human frataxin protein (Abcam ab95502) (human) (UniProt Q16595); assay: Simoa sandwich 3-step; capture Ab-2; frataxin 100 pg/mL; remark: listed apart in the source
[20] = target: Recombinant, his tagged full length human frataxin protein (Abcam ab95502) (human) (UniProt Q16595); assay: Simoa sandwich 3-step; capture Ab-4; frataxin 100 pg/mL; remark: listed apart in the source
[21] = target: Recombinant, his tagged full length human frataxin protein (Abcam ab95502) (human) (UniProt Q16595); assay: Simoa sandwich 2-step (120 min-5 min); capture Ab-1; Diluent 1 + 5% NCS; frataxin 1000 pg/mL
[22] = target: Recombinant, his tagged full length human frataxin protein (Abcam ab95502) (human) (UniProt Q16595); assay: Simoa sandwich 2-step; capture Ab-4
[23] = target: Recombinant, his tagged full length human frataxin protein (Abcam ab95502) (human) (UniProt Q16595); assay: Simoa sandwich 2-step (120 min-5 min); capture Ab-1; Diluent 1 + 10% NCS; frataxin 4.12 pg/mL
[24] = target: Recombinant, his tagged full length human frataxin protein (Abcam ab95502) (human) (UniProt Q16595); assay: Simoa sandwich; capture Ab-1; no helper beads; frataxin 6.17 pg/mL
[25] = target: Recombinant, his tagged full length human frataxin protein (Abcam ab95502) (human) (UniProt Q16595); assay: Simoa sandwich 3-step; capture Ab-5; frataxin 1000 pg/mL

UniProt Q16595, sequence (Q16595 42-210): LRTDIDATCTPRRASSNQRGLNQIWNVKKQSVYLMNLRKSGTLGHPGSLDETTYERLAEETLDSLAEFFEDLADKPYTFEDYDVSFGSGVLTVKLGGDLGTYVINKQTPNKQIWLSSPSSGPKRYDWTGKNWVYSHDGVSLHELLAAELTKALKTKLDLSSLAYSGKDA

## Ab-3, mouse monoclonal [18A5DB1] to Frataxin (Abcam ab110328) (antibody)
[1]
  Ave AEB: 23.7 AEB
  S/B: 193
[2]
  AEB rep1: 1.01 AEB
  AEB rep2: 1.08 AEB
  AEB rep3: 1.04 AEB
  Ave AEB: 1.04 AEB
  S/B: 127
[3]
  Ave AEB: 2.9 AEB
  S/B: 15.2
[4]
  Ave AEB: 2.44 AEB
  S/B: 38.9
[5]
  Ave AEB: 5.52 AEB
  S/B: 53.2
[6]
  AEB Rep1: 0.0586 AEB
  AEB Rep2: 0.0638 AEB
  Ave AEB: 0.0612 AEB
  S/B: 2.51
[7]
  LOD: 0.268 pg/mL
[8]
  Ave AEB: 2.03 AEB
  S/B: 112
[9]
  LOD: 0.323 pg/mL
[10]
  Ave AEB: 8.49 AEB
  S/B: 69.3
[11]
  LOD: 0.419 pg/mL
[12]
  Ave AEB: 2.79 AEB
  S/B: 23.8
[13]
  AEB rep1: 0.129 AEB
  AEB rep2: 0.117 AEB
  AEB rep3: 0.142 AEB
  Ave AEB: 0.129 AEB
  S/B: 15.7
[14]
  Ave AEB: 3.06 AEB
  S/B: 279
[15]
  Ave AEB: 17.2 AEB
  S/B: 359
[16]
  AEB Rep1: 0.146 AEB
  AEB Rep2: 0.143 AEB
  Ave AEB: 0.144 AEB
  S/B: 5.93
[17]
  Ave AEB: 3.69 AEB
  S/B: 82.3
[18]
  LOD: 0.132 pg/mL
[19]
  Ave AEB: 2.03 AEB
  S/B: 45.8
[20]
  Ave AEB: 1.05 AEB
  S/B: 21.9
[21]
  Ave AEB: 8.95 AEB
  S/B: 815
[22]
  LOD: 0.34 pg/mL
[23]
  Ave AEB: 0.0283 AEB
  S/B: 2.63
[24]
  AEB Rep1: 0.118 AEB
  AEB Rep2: 0.141 AEB
  Ave AEB: 0.13 AEB
  S/B: 5.74
[25]
  Ave AEB: 22.9 AEB
  S/B: 120
